Biological target: CCR5 on ThP1 human monocytes (human) (UniProt P51681)
Sequence (P51681 whole entry): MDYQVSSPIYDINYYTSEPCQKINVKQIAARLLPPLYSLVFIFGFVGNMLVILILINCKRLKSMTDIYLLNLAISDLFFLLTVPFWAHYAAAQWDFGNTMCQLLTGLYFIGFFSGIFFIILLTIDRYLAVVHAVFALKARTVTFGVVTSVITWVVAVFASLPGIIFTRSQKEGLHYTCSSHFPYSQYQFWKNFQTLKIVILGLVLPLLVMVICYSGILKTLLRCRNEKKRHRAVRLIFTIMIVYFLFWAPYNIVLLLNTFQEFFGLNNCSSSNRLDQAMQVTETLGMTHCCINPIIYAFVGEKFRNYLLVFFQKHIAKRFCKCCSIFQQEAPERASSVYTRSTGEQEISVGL

EC50, calcium flux (RFU) in ThP1 monocytes [panel D]: 6.3 nM
Substance: native form murine CCL4 (from UniProt P14097 24-92) (ligand)

— patent US20260049115A1
